The data set concerns MePEG2-IEGR (TFA salt).

With Factor Xa, the “Kcat (Vmax/[FXa])” value was “Kcat=Vmax/[FXa]=1.05×10^14 s^-1” and the “luminescence signal (RLU) from substrate cleavage, 80 nM enzyme” value is reported as “A concentration of 80 nm FXa yielded a signal of 1.000.000 RLU”.

For the substance thrombin, the “luminescence signal (RLU) from substrate cleavage, 52 nM enzyme” value was 52 nM thrombin yielded ˜30.000 RLU.

Source of the values: US20210371461.
